Legend:
[1] = target: T1, human CLDN18.2 (human); experiment: FACS, NUGC4 cells
T1 construct: also called hCLDN18.2; Claudin-18 splice variant 2

[2] = target: human CLDN18.2-mRFP W30A (human); experiment: FACS, transfected HEK293, 10 µg/ml antibody;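 note: antibody binding detected by flow cytometry with FITC-labelled anti-human IgG secondary, gated on RFP-positive cells, mutant signal relative to wild-type CLDN18.2-mRFP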
Procedure: (§1) The transfected HEK293-CLDN18.2 or HEK293-CLDN18.1 cell were resuspended in PBS with 2% BSA at density of 10\hat{ }5/well, 100 μl/well. […] Next, cells were washed 3 times by FACS washing buffer and incubated with 100 μl/well goat anti-hIgG (H+L)-FITC (1:200 dilution) at 4° C. for another 30 min. Finally, cells were washed 3 times by FACS washing buffer and analyzed by Flow Cytometry. To analyze binding to CLDN18.2 transfected cells, the RFP positive cells were used for control gating.
(§2) Subsequently, these plasmids of mutants and wild-type CLDN18.2-mRFP were transfected into HEK293 cell.

[3] = target: human CLDN18.2-mRFP L35A (human); experiment: FACS, transfected HEK293, 10 µg/ml antibody;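 note: antibody binding detected by flow cytometry with FITC-labelled anti-human IgG secondary, gated on RFP-positive cells, mutant signal relative to wild-type CLDN18.2-mRFP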
Procedure: as §1, §2

[4] = target: human CLDN18.2-mRFP N37A (human); experiment: FACS, transfected HEK293, 10 µg/ml antibody;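 note: antibody binding detected by flow cytometry with FITC-labelled anti-human IgG secondary, gated on RFP-positive cells, mutant signal relative to wild-type CLDN18.2-mRFP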
Procedure: as §1, §2

[5] = target: human CLDN18.2-mRFP T41A (human); experiment: FACS, transfected HEK293, 10 µg/ml antibody;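 note: antibody binding detected by flow cytometry with FITC-labelled anti-human IgG secondary, gated on RFP-positive cells, mutant signal relative to wild-type CLDN18.2-mRFP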
Procedure: as §1, §2

[6] = target: human CLDN18.2-mRFP N45A (human); experiment: FACS, transfected HEK293, 10 µg/ml antibody
Procedure: as §1, §2

[7] = target: human CLDN18.2-mRFP Y46A (human); experiment: FACS, transfected HEK293, 10 µg/ml antibody
Procedure: as §1, §2

[8] = target: human CLDN18.2-mRFP L49A (human); experiment: FACS, transfected HEK293, 10 µg/ml antibody
Procedure: as §1, §2

[9] = target: human CLDN18.2-mRFP R51A (human); experiment: FACS, transfected HEK293, 10 µg/ml antibody
Procedure: as §1, §2

[10] = target: human CLDN18.2-mRFP F60A (human); experiment: FACS, transfected HEK293, 10 µg/ml antibody
Procedure: as §1, §2

[11] = target: human CLDN18.2-mRFP T61A (human); experiment: FACS, transfected HEK293, 10 µg/ml antibody
Procedure: as §1, §2

[12] = target: human CLDN18.2-mRFP E62A (human); experiment: FACS, transfected HEK293, 10 µg/ml antibody
Procedure: as §1, §2

[13] = target: human CLDN18.2-mRFP Y66A (human); experiment: FACS, transfected HEK293, 10 µg/ml antibody
Procedure: as §1, §2

[14] = target: human CLDN18.2-mRFP F67A (human); experiment: FACS, transfected HEK293, 10 µg/ml antibody
Procedure: as §1, §2

[15] = target: human CLDN18.2-mRFP T68A (human); experiment: FACS, transfected HEK293, 10 µg/ml antibody
Procedure: as §1, §2

[16] = target: human CLDN18.2-mRFP L70A (human); experiment: FACS, transfected HEK293, 10 µg/ml antibody
Procedure: as §1, §2

[17] = target: human CLDN18.2-mRFP Q77A (human); experiment: FACS, transfected HEK293, 10 µg/ml antibody
Procedure: as §1, §2

[18] = target: human CLDN18.2-mRFP R80A (human); experiment: FACS, transfected HEK293, 10 µg/ml antibody
Sequence of human CLDN18.2-mRFP R80A (human) (chain, as listed by the source R80A R80A limits assumed): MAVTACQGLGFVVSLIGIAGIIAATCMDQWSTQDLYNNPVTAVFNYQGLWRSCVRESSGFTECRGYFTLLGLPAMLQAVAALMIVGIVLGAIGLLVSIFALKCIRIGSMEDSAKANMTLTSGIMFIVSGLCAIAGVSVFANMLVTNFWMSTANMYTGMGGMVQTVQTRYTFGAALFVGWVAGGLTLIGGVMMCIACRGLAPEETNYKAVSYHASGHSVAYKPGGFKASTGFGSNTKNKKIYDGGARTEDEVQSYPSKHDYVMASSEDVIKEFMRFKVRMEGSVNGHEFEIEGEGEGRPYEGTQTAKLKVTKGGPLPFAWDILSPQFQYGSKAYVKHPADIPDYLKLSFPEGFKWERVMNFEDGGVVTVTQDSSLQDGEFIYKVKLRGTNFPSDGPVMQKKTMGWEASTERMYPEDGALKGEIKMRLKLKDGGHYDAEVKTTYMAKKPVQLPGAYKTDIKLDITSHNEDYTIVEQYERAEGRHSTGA
Procedure: as §1, §2

Sequence of human CLDN18.2-mRFP F67A (human) (chain, as listed by the source F67A F67A limits assumed): as the sequence (chain, as listed by the source R80A R80A limits assumed) above, with F67A, A80R counted along it
Sequence of human CLDN18.2-mRFP T41A (human) (chain, as listed by the source T41A T41A limits assumed): as the sequence (chain, as listed by the source R80A R80A limits assumed) above, with T41A, A80R counted along it
Sequence of human CLDN18.2-mRFP N37A (human) (chain, as listed by the source N37A N37A limits assumed): as the sequence (chain, as listed by the source R80A R80A limits assumed) above, with N37A, A80R counted along it
Sequence of human CLDN18.2-mRFP Y46A (human) (chain, as listed by the source Y46A Y46A limits assumed): as the sequence (chain, as listed by the source R80A R80A limits assumed) above, with Y46A, A80R counted along it
Sequence of human CLDN18.2-mRFP T61A (human) (chain, as listed by the source T61A T61A limits assumed): as the sequence (chain, as listed by the source R80A R80A limits assumed) above, with T61A, A80R counted along it
Sequence of human CLDN18.2-mRFP N45A (human) (chain, as listed by the source N45A N45A limits assumed): as the sequence (chain, as listed by the source R80A R80A limits assumed) above, with N45A, A80R counted along it
Sequence of human CLDN18.2-mRFP L49A (human) (chain, as listed by the source L49A L49A limits assumed): as the sequence (chain, as listed by the source R80A R80A limits assumed) above, with L49A, A80R counted along it
Sequence of human CLDN18.2-mRFP R51A (human) (chain, as listed by the source R51A R51A limits assumed): as the sequence (chain, as listed by the source R80A R80A limits assumed) above, with R51A, A80R counted along it
Sequence of human CLDN18.2-mRFP F60A (human) (chain, as listed by the source F60A F60A limits assumed): as the sequence (chain, as listed by the source R80A R80A limits assumed) above, with F60A, A80R counted along it
Sequence of human CLDN18.2-mRFP L70A (human) (chain, as listed by the source L70A L70A limits assumed): as the sequence (chain, as listed by the source R80A R80A limits assumed) above, with L70A, A80R counted along it
Sequence of human CLDN18.2-mRFP T68A (human) (chain, as listed by the source T68A T68A limits assumed): as the sequence (chain, as listed by the source R80A R80A limits assumed) above, with T68A, A80R counted along it
Sequence of human CLDN18.2-mRFP E62A (human) (chain, as listed by the source E62A E62A limits assumed): as the sequence (chain, as listed by the source R80A R80A limits assumed) above, with E62A, A80R counted along it
Sequence of human CLDN18.2-mRFP L35A (human) (chain, as listed by the source L35A L35A limits assumed): as the sequence (chain, as listed by the source R80A R80A limits assumed) above, with L35A, A80R counted along it
Sequence of human CLDN18.2-mRFP W30A (human) (chain, as listed by the source W30A W30A limits assumed): as the sequence (chain, as listed by the source R80A R80A limits assumed) above, with W30A, A80R counted along it
Sequence of human CLDN18.2-mRFP Y66A (human) (chain, as listed by the source Y66A Y66A limits assumed): as the sequence (chain, as listed by the source R80A R80A limits assumed) above, with Y66A, A80R counted along it
Sequence of human CLDN18.2-mRFP Q77A (human) (chain, as listed by the source Q77A Q77A limits assumed): as the sequence (chain, as listed by the source R80A R80A limits assumed) above, with Q77A, A80R counted along it

EC50 [1]: 19.1 µg/mL
binding percentage vs wild-type CLDN18.2 [2]: 3.2%
binding percentage vs wild-type CLDN18.2 [3]: 75.4%
binding percentage vs wild-type CLDN18.2 [4]: 60.7%
binding percentage vs wild-type CLDN18.2 [5]: 41.6%
binding percentage vs wild-type CLDN18.2 [6]: 35.2%
binding percentage vs wild-type CLDN18.2 [7]: 15%
binding percentage vs wild-type CLDN18.2 [8]: 2.32%
binding percentage vs wild-type CLDN18.2 [9]: 22.1%
binding percentage vs wild-type CLDN18.2 [10]: 64.4%
binding percentage vs wild-type CLDN18.2 [11]: 51.6%
binding percentage vs wild-type CLDN18.2 [12]: 23.1%
binding percentage vs wild-type CLDN18.2 [13]: 52.5%
binding percentage vs wild-type CLDN18.2 [14]: 79.9%
binding percentage vs wild-type CLDN18.2 [15]: 71.3%
binding percentage vs wild-type CLDN18.2 [16]: 82.1%
binding percentage vs wild-type CLDN18.2 [17]: 63.4%
binding percentage vs wild-type CLDN18.2 [18]: 13.6%
B1: 59A9-C (antibody, human IgG1, V domains shown)
VH: QITQKESGPGILQPSQTLSLTCSLSGFSLSTYFIGVGWIRQPSGKGLEWLAHIWWNDNKYYNTALKSRLTISKDTSNNQVFLKIASVDTADTATYYCARMGSGAWFTYWGQGTLVTVSA
VL: DIVMTQSPSSLTVTAGEKVTMSCKSSQSLLNSGNQKNYLTWYQQKPGQPPKLLIYWASTRESGVPDRFTGSGSGTDFTLTISSVQAEDLAVYYCQNDYYYPLTFGSGTKLEIK
notes: also called chimeric 59A9
